From publication PMC4139204 (The Journal of Biological Chemistry, 2014)

Target: Recombinant RbAp48 (human, UniProt Q09028 1-425)
Experiment: ITC; MTA1 peptide (250 uM) titrated into RbAp48 (25 uM); 25 C; 20 mM Tris pH 7.5, 150 mM NaCl; single-site model
Conditions: both partners purified

Recombinant RbAp48, sequence (Q09028 whole entry): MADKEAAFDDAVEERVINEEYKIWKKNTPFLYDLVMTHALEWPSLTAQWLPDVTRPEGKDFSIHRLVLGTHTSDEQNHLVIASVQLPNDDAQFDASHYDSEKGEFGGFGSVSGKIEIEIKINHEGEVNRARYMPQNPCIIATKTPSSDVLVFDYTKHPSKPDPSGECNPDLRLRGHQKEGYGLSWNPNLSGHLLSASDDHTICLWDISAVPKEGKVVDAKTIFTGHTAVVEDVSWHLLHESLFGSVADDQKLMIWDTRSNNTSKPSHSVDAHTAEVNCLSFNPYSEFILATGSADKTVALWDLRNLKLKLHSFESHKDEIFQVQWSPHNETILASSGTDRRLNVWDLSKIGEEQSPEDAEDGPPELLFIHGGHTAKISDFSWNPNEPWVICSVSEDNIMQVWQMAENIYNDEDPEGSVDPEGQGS

Row | Kd [nM] | stoichiometry N | Binder
1 | 50 | 1 | Ac-KLLSSSETKRAARRPYKPIALRQSQA-NH2 (peptide, UniProt Q13330 670-695, looked up) [MTA1-(670-695) peptide]
2 |  | 1 | Ac-DVFYMATEETRKIRKLLSSSETKRAARRPYK-NH2 (peptide, UniProt Q13330 656-686, looked up) [MTA1-(656-686) peptide]
3 |  | 1 | Ac-KLLSSSETKRAARRPYKPIALRQSQALPPRPPPPAPVNDEPI-NH2 (peptide, UniProt Q13330 670-711, looked up) [MTA1-(670-711) peptide]
